Ends that are not written are not given here.
Target: MBP-VDR-LBDmt (human)
Assay: fluorescence polarisation

Kd [µM]	Binder
> 20	C(Texas Red maleimide)KVSQNPILTSLLQITGNGG [DRIP205-1 peptide, Texas Red labeled]
< 20	C(Texas Red maleimide)QAANNSLLLHLLKSQTIPK [RIP140-5 peptide, Texas Red labeled]
> 20	C(Texas Red maleimide)AASKHKQLSELLRSGSSPN [P300 peptide, Texas Red labeled]

Reference: article PMC2654718 (Biochemistry, 2009)
